Common to all, as to experiment: cell-based or functional assay
In experiment [1] the target is human glucagon receptor (human) (UniProt P47871).
In experiment [2] the target is human GLP-1 receptor (human) (UniProt P43220).
For experiment [3], the target named is human glucagon receptor (human) (UniProt P47871). The source holds these as a separate data set.

Like-named read-outs stand apart in the source and are kept apart here. Where no end group is shown, it is not given here. [ ]: non-standard residue; d: D form. The star is where a group is joined. Acetyl(2-(4-imidazolyl)) = O=C(Cc1c[nH]cn1)*

Chain of human glucagon receptor (human) (P47871 26-477): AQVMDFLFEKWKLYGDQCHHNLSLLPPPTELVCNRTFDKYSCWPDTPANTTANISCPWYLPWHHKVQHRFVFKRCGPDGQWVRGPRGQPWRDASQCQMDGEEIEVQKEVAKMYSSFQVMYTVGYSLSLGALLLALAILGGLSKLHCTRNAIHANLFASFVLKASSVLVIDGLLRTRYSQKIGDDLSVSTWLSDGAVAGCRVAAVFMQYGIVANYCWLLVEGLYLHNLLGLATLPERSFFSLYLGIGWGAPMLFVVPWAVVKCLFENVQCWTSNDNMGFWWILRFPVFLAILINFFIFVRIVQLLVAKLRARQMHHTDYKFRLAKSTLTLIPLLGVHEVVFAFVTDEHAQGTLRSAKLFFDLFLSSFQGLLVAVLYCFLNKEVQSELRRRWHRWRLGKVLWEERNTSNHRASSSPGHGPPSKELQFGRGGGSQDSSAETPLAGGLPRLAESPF
Chain of human GLP-1 receptor (human) (P43220 24-463): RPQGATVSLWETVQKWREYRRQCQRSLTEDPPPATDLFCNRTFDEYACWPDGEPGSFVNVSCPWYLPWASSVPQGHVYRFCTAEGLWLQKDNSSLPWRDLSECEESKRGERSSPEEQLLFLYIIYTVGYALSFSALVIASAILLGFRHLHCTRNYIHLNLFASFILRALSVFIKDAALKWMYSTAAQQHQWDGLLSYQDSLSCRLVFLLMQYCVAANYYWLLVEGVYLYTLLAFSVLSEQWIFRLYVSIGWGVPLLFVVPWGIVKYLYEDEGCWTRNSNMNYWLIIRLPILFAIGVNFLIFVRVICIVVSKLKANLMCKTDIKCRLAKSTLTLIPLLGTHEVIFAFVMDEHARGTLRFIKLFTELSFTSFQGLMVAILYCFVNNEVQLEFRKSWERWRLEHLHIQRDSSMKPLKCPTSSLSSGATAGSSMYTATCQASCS

Regarding “GLP-1 (from UniProt P01275 92-128) (ligand)”, the EC50 (nM), cAMP in CHO/GCGR in experiment [1] was more than 1000 nM.

B1: oxyntomodulin derivative (SEQ ID NO. 3) (peptide)
peptide: [Acetyl(2-(4-imidazolyl))]SQGTFTSDYSKYLDERRAQDFVAWLKNTGPSSGAPPPS
Take B1: the EC50 (nM), cAMP in CHO/GLP-1R in experiment [2] is more than 1000 nM. In experiment [3], this molecule returned an EC50 (nM), cAMP in CHO/GCGR of 638 nM.

B2: oxyntomodulin derivative (SEQ ID NO. 18) (peptide)
peptide: [Acetyl(2-(4-imidazolyl))]SQGTFTSDYSRYLDEEAVRLFIEWIRNGGPSSGAPPPSK
B2 yielded an EC50 (nM), cAMP in CHO/GLP-1R in experiment [2] of 96.3 nM. For the same molecule, the EC50 (nM), cAMP in CHO/GCGR in experiment [3] is more than 1000 nM.

B3: oxyntomodulin derivative (SEQ ID NO. 8) (peptide)
peptide: [Acetyl(2-(4-imidazolyl))]SQGTFTSDLSRQLEEEAVRLFIEWLMNK
With B3, in experiment [2], the EC50 (nM), cAMP in CHO/GLP-1R came to 420 nM. Further, the EC50 (nM), cAMP in CHO/GCGR in experiment [3] is more than 1000 nM.
